In the supplement of paper PMC10065799, “High-throughput profiling of sequence recognition by tyrosine kinases and SH2 domains using bacterial peptide display” (eLife, 2023):

Legend:
Grb2 SH2 = Grb2 SH2 (UniProt P62993); assay: SH2 binding enrichment of the phosphorylated peptide, bacterial display (enrichment ratio); higher = better substrate or ligand; peptides without Tyr show the background
SHP2-C SH2 = assay: as above
c-Src SH2 = assay: as above
Fer (mouse) = assay: phosphorylation enrichment, bacterial display (enrichment ratio); higher = better substrate or ligand; peptides without Tyr show the background
EPHB1 = EPHB1 (UniProt P54762); assay: as above
Hck = Hck (UniProt P08631); assay: as above
Jak2 = Jak2 (UniProt O60674); assay: as above
Chain of Jak2 (O60674 whole entry, looked up): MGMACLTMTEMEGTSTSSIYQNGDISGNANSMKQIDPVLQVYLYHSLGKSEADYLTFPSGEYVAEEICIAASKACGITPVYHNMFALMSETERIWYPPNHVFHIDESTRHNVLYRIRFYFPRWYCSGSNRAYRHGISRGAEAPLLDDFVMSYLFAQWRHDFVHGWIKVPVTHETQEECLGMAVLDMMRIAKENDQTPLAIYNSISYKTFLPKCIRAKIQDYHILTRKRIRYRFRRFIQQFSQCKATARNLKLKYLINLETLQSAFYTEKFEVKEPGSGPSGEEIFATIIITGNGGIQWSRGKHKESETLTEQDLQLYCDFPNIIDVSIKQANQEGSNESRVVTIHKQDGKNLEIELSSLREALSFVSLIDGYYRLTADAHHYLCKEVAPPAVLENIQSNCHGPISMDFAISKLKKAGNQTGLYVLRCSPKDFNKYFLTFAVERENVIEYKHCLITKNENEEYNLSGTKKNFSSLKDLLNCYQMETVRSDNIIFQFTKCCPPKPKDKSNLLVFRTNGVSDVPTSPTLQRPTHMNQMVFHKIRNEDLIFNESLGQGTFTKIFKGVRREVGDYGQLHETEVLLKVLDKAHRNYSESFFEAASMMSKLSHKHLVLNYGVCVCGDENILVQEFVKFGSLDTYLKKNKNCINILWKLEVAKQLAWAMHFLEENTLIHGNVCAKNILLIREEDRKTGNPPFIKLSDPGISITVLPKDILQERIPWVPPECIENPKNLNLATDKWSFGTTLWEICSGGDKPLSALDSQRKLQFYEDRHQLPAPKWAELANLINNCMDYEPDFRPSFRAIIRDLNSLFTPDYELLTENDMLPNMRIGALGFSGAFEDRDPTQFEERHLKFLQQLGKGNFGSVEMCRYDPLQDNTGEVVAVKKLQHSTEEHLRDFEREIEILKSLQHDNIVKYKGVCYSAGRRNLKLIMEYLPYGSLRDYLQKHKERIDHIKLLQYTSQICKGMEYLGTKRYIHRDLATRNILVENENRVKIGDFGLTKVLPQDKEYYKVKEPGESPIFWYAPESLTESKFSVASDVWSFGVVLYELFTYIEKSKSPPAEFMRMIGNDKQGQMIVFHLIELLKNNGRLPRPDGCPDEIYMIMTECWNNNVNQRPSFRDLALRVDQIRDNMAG

c-Abl (mouse) = assay: as above
FGFR1 = FGFR1 (UniProt P11362); assay: as above
Chain of FGFR1 (P11362 whole entry, looked up): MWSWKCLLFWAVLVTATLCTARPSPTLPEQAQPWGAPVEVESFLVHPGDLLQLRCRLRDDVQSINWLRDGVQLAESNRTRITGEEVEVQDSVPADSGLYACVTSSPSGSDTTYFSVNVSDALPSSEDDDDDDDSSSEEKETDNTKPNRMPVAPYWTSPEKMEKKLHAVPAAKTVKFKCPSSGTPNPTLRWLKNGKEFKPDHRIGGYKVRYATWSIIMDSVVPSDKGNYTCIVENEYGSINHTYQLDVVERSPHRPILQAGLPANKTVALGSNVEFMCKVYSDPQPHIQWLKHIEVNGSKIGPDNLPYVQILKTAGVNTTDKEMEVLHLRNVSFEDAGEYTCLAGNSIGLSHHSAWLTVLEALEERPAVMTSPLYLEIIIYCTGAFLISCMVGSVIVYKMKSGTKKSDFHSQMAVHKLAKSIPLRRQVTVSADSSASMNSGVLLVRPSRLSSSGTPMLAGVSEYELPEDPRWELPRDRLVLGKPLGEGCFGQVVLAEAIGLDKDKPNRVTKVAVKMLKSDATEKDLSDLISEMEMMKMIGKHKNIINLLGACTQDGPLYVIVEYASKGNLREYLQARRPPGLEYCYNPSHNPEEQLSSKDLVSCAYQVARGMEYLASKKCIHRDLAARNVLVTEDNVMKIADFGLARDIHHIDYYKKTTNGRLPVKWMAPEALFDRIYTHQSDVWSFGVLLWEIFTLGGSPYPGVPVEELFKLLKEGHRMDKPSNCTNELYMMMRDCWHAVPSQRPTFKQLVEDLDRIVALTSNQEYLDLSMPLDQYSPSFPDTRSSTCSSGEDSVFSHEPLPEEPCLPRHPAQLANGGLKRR

Fes = Fes (UniProt P07332); assay: as above
FGFR3 = FGFR3 (UniProt P22607); assay: as above
Chain of FGFR3 (P22607 whole entry, looked up): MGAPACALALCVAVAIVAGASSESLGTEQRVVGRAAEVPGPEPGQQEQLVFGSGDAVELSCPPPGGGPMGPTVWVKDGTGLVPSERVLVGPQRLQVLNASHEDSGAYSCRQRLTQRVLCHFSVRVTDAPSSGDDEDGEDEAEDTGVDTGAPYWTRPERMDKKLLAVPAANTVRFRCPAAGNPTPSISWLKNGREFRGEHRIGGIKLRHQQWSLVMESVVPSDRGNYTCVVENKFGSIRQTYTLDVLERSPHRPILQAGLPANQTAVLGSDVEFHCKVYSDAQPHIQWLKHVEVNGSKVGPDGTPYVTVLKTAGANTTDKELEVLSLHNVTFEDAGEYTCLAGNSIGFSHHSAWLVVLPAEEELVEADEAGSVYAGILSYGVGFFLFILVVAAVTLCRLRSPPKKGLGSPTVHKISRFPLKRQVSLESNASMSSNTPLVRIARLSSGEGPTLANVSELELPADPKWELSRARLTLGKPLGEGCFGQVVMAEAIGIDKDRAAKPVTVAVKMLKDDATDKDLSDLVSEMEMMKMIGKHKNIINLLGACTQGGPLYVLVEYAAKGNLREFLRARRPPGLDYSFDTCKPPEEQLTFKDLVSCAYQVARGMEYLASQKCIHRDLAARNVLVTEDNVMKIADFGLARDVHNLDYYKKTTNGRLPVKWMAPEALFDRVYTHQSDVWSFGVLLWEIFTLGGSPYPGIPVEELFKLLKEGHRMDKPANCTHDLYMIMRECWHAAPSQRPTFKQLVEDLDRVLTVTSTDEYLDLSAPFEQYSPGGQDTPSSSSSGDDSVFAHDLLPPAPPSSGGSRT

AncSZ = assay: as above
c-Src = assay: as above
Fyn = Fyn (UniProt P06241); assay: as above
EPHB2 = EPHB2 (UniProt P29323); assay: as above
Chain of EPHB2 (P29323 whole entry, looked up): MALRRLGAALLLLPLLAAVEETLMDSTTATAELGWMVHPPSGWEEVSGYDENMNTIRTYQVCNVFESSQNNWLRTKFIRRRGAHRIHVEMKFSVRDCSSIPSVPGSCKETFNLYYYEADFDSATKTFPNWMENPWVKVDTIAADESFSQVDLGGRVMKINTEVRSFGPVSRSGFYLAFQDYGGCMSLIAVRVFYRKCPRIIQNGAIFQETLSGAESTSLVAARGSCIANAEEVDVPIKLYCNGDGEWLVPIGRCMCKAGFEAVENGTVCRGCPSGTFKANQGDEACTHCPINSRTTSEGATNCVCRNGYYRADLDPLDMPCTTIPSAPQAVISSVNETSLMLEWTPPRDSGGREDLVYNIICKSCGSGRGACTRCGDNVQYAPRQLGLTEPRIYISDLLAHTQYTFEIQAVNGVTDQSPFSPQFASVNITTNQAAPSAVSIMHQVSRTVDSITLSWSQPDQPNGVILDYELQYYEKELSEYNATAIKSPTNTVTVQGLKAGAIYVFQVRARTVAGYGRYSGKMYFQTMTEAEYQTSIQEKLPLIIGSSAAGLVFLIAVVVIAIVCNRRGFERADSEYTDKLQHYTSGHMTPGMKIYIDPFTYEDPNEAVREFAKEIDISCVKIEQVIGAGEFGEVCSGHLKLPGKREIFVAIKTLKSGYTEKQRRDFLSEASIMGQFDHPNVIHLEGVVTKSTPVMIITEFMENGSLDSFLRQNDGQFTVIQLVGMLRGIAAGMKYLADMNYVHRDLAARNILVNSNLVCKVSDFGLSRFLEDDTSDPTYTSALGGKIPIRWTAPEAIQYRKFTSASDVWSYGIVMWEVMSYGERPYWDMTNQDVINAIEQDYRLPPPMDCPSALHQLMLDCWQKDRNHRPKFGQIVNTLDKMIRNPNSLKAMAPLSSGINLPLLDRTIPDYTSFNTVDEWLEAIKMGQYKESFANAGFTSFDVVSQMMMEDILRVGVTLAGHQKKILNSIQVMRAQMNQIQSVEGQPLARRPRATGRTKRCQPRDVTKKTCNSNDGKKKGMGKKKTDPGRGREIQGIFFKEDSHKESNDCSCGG

MERTK = MERTK (UniProt Q12866); assay: as above
Chain of MERTK (Q12866 whole entry, looked up, the tested form may be a part): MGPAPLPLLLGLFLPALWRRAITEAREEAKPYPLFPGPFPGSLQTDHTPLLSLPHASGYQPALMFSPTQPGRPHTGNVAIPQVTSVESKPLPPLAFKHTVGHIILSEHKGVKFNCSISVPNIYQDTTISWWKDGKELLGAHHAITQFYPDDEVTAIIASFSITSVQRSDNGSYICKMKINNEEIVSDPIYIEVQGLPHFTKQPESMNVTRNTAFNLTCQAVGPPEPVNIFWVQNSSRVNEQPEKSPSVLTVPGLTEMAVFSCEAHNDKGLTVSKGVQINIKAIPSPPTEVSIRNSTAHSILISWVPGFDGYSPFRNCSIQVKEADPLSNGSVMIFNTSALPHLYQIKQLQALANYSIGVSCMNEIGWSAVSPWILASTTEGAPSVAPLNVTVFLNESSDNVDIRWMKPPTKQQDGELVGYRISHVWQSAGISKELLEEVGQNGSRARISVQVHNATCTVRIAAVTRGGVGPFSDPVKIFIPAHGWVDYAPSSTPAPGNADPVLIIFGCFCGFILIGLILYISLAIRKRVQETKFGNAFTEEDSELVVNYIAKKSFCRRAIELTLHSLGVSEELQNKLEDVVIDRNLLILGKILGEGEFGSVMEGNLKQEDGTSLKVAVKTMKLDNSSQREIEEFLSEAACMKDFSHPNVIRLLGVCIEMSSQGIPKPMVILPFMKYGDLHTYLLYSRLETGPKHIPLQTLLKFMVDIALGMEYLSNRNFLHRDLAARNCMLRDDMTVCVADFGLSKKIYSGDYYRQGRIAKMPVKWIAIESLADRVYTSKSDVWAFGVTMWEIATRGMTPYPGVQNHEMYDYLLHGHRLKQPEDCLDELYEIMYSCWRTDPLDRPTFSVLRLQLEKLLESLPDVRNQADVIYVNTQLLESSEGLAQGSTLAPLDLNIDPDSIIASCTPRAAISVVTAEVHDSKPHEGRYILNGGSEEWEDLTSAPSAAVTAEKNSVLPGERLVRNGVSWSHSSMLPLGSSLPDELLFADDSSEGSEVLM
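For SH2 binding enrichment of the phosphorylated peptide, bacterial display in this document: peptide library displayed on the E. coli surface as eCPX fusions, selected cells deep-sequenced, score is each peptide's frequency after selection divided by its frequency in the input.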
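For phosphorylation enrichment, bacterial display in this document: 11-residue human phosphosite peptides and single-mutation variants displayed on the E. coli surface, counted by deep sequencing, each peptide's frequency after selection divided by its frequency in the unselected input library; frequency after pTyr selection over input frequency; kinase dosed for 20-30% of maximal phosphorylation in three min.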

| SH2 binding enrichment (Grb2 SH2) | SH2 binding enrichment (SHP2-C SH2) | SH2 binding enrichment (c-Src SH2) | Sequence | phosphorylation enrichment (Fer (mouse)) | phosphorylation enrichment (EPHB1) | phosphorylation enrichment (Hck) | phosphorylation enrichment (Jak2) | phosphorylation enrichment (c-Abl (mouse)) | phosphorylation enrichment (FGFR1) | phosphorylation enrichment (Fes) | phosphorylation enrichment (FGFR3) | phosphorylation enrichment (AncSZ) | phosphorylation enrichment (c-Src) | phosphorylation enrichment (Fyn) | phosphorylation enrichment (EPHB2) | phosphorylation enrichment (MERTK) |
| --- | --- | --- | --- | --- | --- | --- | --- | --- | --- | --- | --- | --- | --- | --- | --- | --- |
| 0.978 | 1.94 | 0.843 | MGGSVYFSYPD [HIKESHI_Y55] | 0.401 | 0.728 | 1.65 | 1.09 | 0.752 | 1.49 | 1.07 | 1.41 | 1.02 | 3.42 | 3.16 | 0.815 | 1.36 |
| 1.09 | 1.06 | 0.416 | LWPIWYRCHRP [MRGPRX1_Y130] | 0.702 | 0.721 | 0.699 | 1.17 | 1.15 | 1.04 | 1.63 | 1.02 | 1.86 | 0.466 | 0.798 | 0.893 | 0.804 |
| 0.815 | 0.749 | 0.622 | EFKKHYGFSLF [ANXA3_Y295_YF] | 0.561 | 0.574 | 0.507 | 0.751 | 0.642 | 0.461 | 1.01 | 0.721 | 0.949 | 0.46 | 0.413 | 0.509 | 0.416 |
| 0.677 | 0.51 | 0.442 | RAYRHYLLKQK [SCN2A_Y1919_R1918H] | 0.332 | 0.334 | 0.414 | 0.47 | 0.376 | 0.31 | 0.597 | 0.607 | 0.52 | 0.583 | 0.632 | 0.602 | 0.571 |
| 0.632 | 0.86 | 0.923 | AIGFEYSEINI [SIGLEC12_Y588_YF] | 3.84 | 0.481 | 1.14 | 1.22 | 0.689 | 2.77 | 1.04 | 1.69 | 1.14 | 1.46 | 0.642 | 0.5 | 0.574 |
| 1.06 | 0.607 | 0.508 | NVTRKYSRQIL [MAP3K2_Y463_T464S] | 0.402 | 0.356 | 0.361 | 0.417 | 0.399 | 0.363 | 0.446 | 0.352 | 0.425 | 0.403 | 0.491 | 0.317 | 0.344 |
| 0.729 | 0.704 | 0.705 | DERQPYVHMNG [IGF1R_Y1346_A1347V] | 0.446 | 0.436 | 0.471 | 0.786 | 0.503 | 0.592 | 0.81 | 0.627 | 0.696 | 0.484 | 0.438 | 0.5 | 0.428 |
| 0.971 | 0.552 | 0.422 | RNDLDYMDSRR [GAA_Y407_W402R] | 0.341 | 0.426 | 0.509 | 0.798 | 0.779 | 0.512 | 0.81 | 0.645 | 0.809 | 0.555 | 0.455 | 0.408 | 0.528 |
| 0.812 | 0.935 | 0.709 | DYYDLYGGEKL [PTPN11_Y66_F71L] | 1.32 | 7.36 | 5.89 | 3.12 | 0.871 | 16.6 | 1.5 | 14.1 | 3.2 | 5.5 | 5.27 | 8.09 | 3.9 |
| 0.829 | 0.455 | 0.441 | ESMNIYLQTSP [NAT1_Y208_T207I] | 0.635 | 0.752 | 1.05 | 1.17 | 0.812 | 0.674 | 1.05 | 0.87 | 1.21 | 1.06 | 0.847 | 0.697 | 0.618 |
| 0.792 | 0.623 | 0.375 | TYTVSYLPDMS [FLNC_Y1602] | 0.491 | 0.528 | 0.582 | 0.903 | 0.55 | 0.512 | 0.874 | 0.656 | 1.05 | 0.561 | 0.568 | 0.705 | 0.733 |
| 0.904 | 1.02 | 0.478 | LGKLTYPVGFW [NTHL1_Y177_I176T] | 1.32 | 1.12 | 1.23 | 2.04 | 1.32 | 1.31 | 2.06 | 1.48 | 2.42 | 1.35 | 1.14 | 1.65 | 0.889 |
| 0.847 | 0.643 | 0.413 | FQKNSYSEELR [LMNA_Y211_I210S] | 0.365 | 0.363 | 0.319 | 0.63 | 0.544 | 0.401 | 0.686 | 0.499 | 0.626 | 0.452 | 0.456 | 0.342 | 0.425 |
| 0.778 | 0.636 | 0.423 | TEAGDYKLCFD [TMED1_Y103] | 0.619 | 0.773 | 0.564 | 1.27 | 0.888 | 0.653 | 1.35 | 1.02 | 1.38 | 0.54 | 0.598 | 0.65 | 0.496 |
| 0.879 | 0.538 | 0.444 | PESTLYRKFTT [NTRK1_Y701_I699T] | 0.448 | 0.433 | 0.608 | 0.812 | 1.12 | 0.646 | 0.83 | 0.644 | 1.01 | 0.467 | 0.347 | 0.275 | 0.399 |
| 0.864 | 0.748 | 0.687 | GEETDYTPVWC [UROD_Y30] | 1.02 | 0.587 | 0.556 | 1.04 | 0.785 | 0.655 | 1.43 | 0.92 | 1.62 | 0.552 | 0.535 | 0.791 | 0.468 |
| 0.816 | 1.34 | 0.781 | QGLRLYRPHLP [BTK_Y617_A622P] | 0.606 | 0.444 | 0.522 | 0.967 | 0.712 | 0.48 | 0.857 | 0.408 | 0.772 | 0.419 | 0.401 | 0.568 | 0.512 |
